For one molecule, ECL signal results are on record in patent US20120058906A1 (published 2012).

Experiment [1] has as its target T1, rHuman CD44/Fc Chimera, CF (R&D Systems Cat#3660-CD) (human, UniProt P16070 21-220).
T1 construct: Bought Fc chimera; Fc part of the bought chimera not given
Put plainly: ECL (MSD Multi-Spot) binding, antigen spotted on plate; Fab 10 nM.

Experiment [2] concerns the target T2, rHuman IGF-1 sR, CF (R&D Systems Cat#391-GR) (human, UniProt P08069 31-932).
T2 construct: Bought soluble receptor; also called insulin-like growth factor-1 soluble receptor; IGF-R1
The experiment is described as above.

In experiment [3] the target is T3, rHuman P-Cadherin/Fc Chimera, CF (R&D Systems Cat#861-PC) (human, UniProt P22223 108-654).
T3 construct: Bought Fc chimera; Fc part of the bought chimera not given
The experiment is described as above.

The target of experiment [4] is T4, rHuman Erythropoietin R/Fc Chimera, CF (R&D Systems Cat#963-ER) (human, UniProt P19235 25-250).
T4 construct: Bought Fc chimera; also called EPO R/Fc; erythropoietin receptor; Fc part of the bought chimera not given
T4 sequence: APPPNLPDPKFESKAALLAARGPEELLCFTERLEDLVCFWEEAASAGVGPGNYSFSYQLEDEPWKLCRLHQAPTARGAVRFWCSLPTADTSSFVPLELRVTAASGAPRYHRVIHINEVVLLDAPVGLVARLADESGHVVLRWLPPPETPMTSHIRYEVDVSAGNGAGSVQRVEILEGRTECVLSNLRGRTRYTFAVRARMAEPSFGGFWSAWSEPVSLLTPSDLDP
The experiment is described as above.

Experiment [5] addresses T5, Recombinant Human DLL4 (R&D Systems Cat#1506-D4/CF) (human, UniProt Q9NR61 27-524).
T5 construct: Bought recombinant protein; also called delta-like protein 4
The description is as above.

In experiment [6] the target is T6, rHuman ErbB2/Fc Chimera, CF (R&D Systems Cat#1129-ER) (human, UniProt P04626 23-652).
T6 construct: Bought Fc chimera; also called human epidermal growth factor 2 receptor; HER2/neu; Fc part of the bought chimera not given
The description is as above.

In experiment [7] the target is T7, rHuman EGF R/Fc Chimera, CF (R&D Systems Cat#344-ER) (human, UniProt P00533 25-645).
T7 construct: Bought Fc chimera; also called epidermal growth factor receptor; Fc part of the bought chimera not given
The description is as above.

Experiment [8] addresses T8, rHuman HGF R/c-MET/Fc Chimera, CF (R&D Systems Cat#358-MT/CF) (human, UniProt P08581 25-932).
T8 construct: Bought Fc chimera; also called HGF R/Fc; hepatocyte growth factor receptor; Fc part of the bought chimera not given
Described as above.

The target in experiment [9] is T9, rHuman Notch-1/Fc Chimera, CF (R&D Systems Cat#3647-TK) (human, UniProt P46531 19-526).
T9 construct: Bought Fc chimera; Fc part of the bought chimera not given
Described as above.

Experiment [10] has as its target T1, rHuman CD44/Fc Chimera, CF (R&D Systems …). Put plainly: ECL (MSD Multi-Spot) binding, antigen spotted on plate; Fab 1000 nM.
Experiment [11] concerns the target T2, rHuman IGF-1 sR, CF (R&D Systems …). The description is as above.
For experiment [12], the target named is T3, rHuman P-Cadherin/Fc Chimera, CF (R&D …). Described as above.
Experiment [13] has as its target T4, rHuman Erythropoietin R/Fc Chimera, CF …. The experiment is described as above.
Experiment [14] addresses T5, Recombinant Human DLL4 (R&D Systems …). The experiment is described as above.
The target in experiment [15] is T6, rHuman ErbB2/Fc Chimera, CF (R&D …). The description is as above.
The target of experiment [16] is T7, rHuman EGF R/Fc Chimera, CF (R&D …). Described as above.
Experiment [17] addresses T8, rHuman HGF R/c-MET/Fc Chimera, CF (R&D …). Described as above.
Experiment [18] concerns the target T9, rHuman Notch-1/Fc Chimera, CF (R&D …). Described as above.
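Also: blank spot per well as comparator with Hit at signal to blank ratio of 4 or more.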

B1: Fab VH1-46_IGHD6-6*01_IGHJ1*01_S102A_S103P_S104F & L6_IGKJ1*01 (Fab, V domains shown)
VH: QVQLVQSGAEVKKPGASVKVSCKASGYTFTSYYMHWVRQAPGQGLEWMGIINPSGGSTSYAQKFQGRVTMTRDTSTSTVYMELSSLRSEDTAVYYCAREEYAPFSAEYFQHWGQGTLVTVSS
VL: not shown
notes: Fab made in E. coli; The heavy chain also carries the CH1 with Flag and His tags of Plasmid A, and the light chain the kappa constant region of Plasmid C
In the case of B1, the ECL signal in [1] stood at 887; in [2], 720; in experiment [3] it was 894; in experiment [4] it was 1110; in [5], 345000; in experiment [6], 842. The ECL signal in experiment [7] is 809; in [8], 691; in [9], 1140; in experiment [10], 1310; in [11], 1180; in experiment [12], 2500. Moreover, the ECL signal in experiment [13] stood at 1660; in experiment [14], 73300; in [15] it was 1290; in [16], 2430; in experiment [17], 1580; in experiment [18], 1620.
